Laboratory results: the Immune Epitope Database (IEDB)
One block for each sequence: values may come before it.

How the values were obtained:
[1] = target: HLA-B*15:01; assay: IEDB peptide-MHC binding, purified MHC/direct/fluorescence; filed as Kd, often an IC50 or EC50 that approximates it; ≥ and ≤ were set here for values at or beyond the usual limits of such assays
[2] = target: HLA-B*07:02; assay: as above
[3] = target: HLA-B*44:02; assay: as above; conditions: source organism: Vibrio vulnificus
[4] = target: HLA-A*69:01; assay: as above
[5] = target: HLA-A*11:01; assay: as above
[6] = target: HLA-B*27:05; assay: as above
[7] = target: HLA-A*03:01; assay: as above
[8] = target: HLA-A*31:01; assay: as above
[9] = target: HLA-A*01:01; assay: as above
[10] = target: HLA-A*24:03; assay: as above
[11] = target: HLA-B*40:01; assay: as above
[12] = target: HLA-A*02:01; assay: as above
[13] = target: HLA-B*08:01; assay: as above
[14] = target: HLA-B*58:01; assay: as above
[15] = target: HLA-A*26:01; assay: as above
[16] = target: HLA-B*44:02; assay: IEDB peptide-MHC binding, purified MHC/competitive/radioactivity; filed as Kd, often an IC50 or EC50 that approximates it; ≥ and ≤ were set here for values at or beyond the usual limits of such assays
[17] = target: HLA-B*40:02; assay: as above
[18] = target: HLA-B*18:01; assay: as above
[19] = target: HLA-B*45:01; assay: as above
[20] = target: HLA-B*40:01; assay: as above
[21] = target: HLA-B*44:03; assay: as above
[22] = source organism: Vibrio vulnificus
[23] = source organism: SARS coronavirus Tor2
[24] = source organism: Mammarenavirus machupoense
[25] = source organism: Corynebacterium glutamicum

Sequence: STDTRHIPQ
Kd [1, 22]: ≥ 20 µM | Kd [2, 22]: ≥ 20 µM | Kd [3]: ≥ 20 µM | Kd [4, 22]: ≥ 20 µM | Kd [5, 22]: ≥ 20 µM | Kd [6, 22]: ≥ 20 µM | Kd [7, 22]: ≥ 20 µM | Kd [8, 22]: ≥ 20 µM | Kd [9, 22]: 4.41 µM | Kd [10, 22]: ≥ 20 µM | Kd [11, 22]: ≥ 20 µM | Kd [12, 22]: ≥ 20 µM | Kd [13, 22]: ≥ 20 µM | Kd [14, 22]: ≥ 20 µM | Kd [15, 22]: ≥ 20 µM

Sequence: TEKSNVVRG
Kd [16, 23]: 11.9 µM | Kd [17, 23]: ≥ 50.3 µM | Kd [18, 23]: ≥ 77.5 µM | Kd [19, 23]: ≥ 31.8 µM | Kd [20, 23]: ≥ 42.7 µM | Kd [21, 23]: ≥ 78.2 µM

Sequence: TEQFLCYAL
Kd [16, 24]: 0.143 µM | Kd [17, 24]: 0.00888 µM | Kd [18, 24]: 0.021 µM | Kd [19, 24]: 0.0266 µM | Kd [20, 24]: 10.6 µM | Kd [21, 24]: 1.5 µM

Sequence: TVQKDGMYF
Kd ([10]; source organism: Giardia lamblia ATCC 50803): 0.46 µM

Kd [1, 25]: 3.81 µM | Kd [2, 25]: 10.3 µM | Kd [4, 25]: ≥ 20 µM | Kd [5, 25]: ≥ 20 µM | Kd [6, 25]: ≥ 20 µM | Kd [7, 25]: ≥ 20 µM | Kd [8, 25]: ≥ 20 µM | Kd [9, 25]: ≥ 20 µM | Kd [10, 25]: ≥ 20 µM | Kd [11, 25]: ≥ 20 µM | Kd [12, 25]: 0.0637 µM | Kd [13, 25]: ≥ 20 µM | Kd [14, 25]: ≥ 20 µM | Kd [15, 25]: ≥ 20 µM
Sequence: VLPVPGASV

Sequence: YECLYRNRDV
Kd [16, 23]: 5.55 µM | Kd [17, 23]: 1.72 µM | Kd [18, 23]: ≥ 70.5 µM | Kd [19, 23]: 2.51 µM | Kd [20, 23]: 2.41 µM | Kd [21, 23]: 10.3 µM

Sequence: YEQYIKWPWY
Kd [16, 23]: 0.0416 µM | Kd [17, 23]: 7.6 µM | Kd [18, 23]: 0.0793 µM | Kd [19, 23]: 0.518 µM | Kd [20, 23]: 1.22 µM | Kd [21, 23]: 0.119 µM
